One block for each substance: values may come before it.
Experiments:
[1] = target: microtubules (paclitaxel-stabilized, polymerized from tubulin); test: optical tweezers unbinding-force assay (constant-pulling); as a1 but with 1 mM ATP; non-reducing conditions
Target sequence in this assay (chain, as listed by the source, chain 1 of 2): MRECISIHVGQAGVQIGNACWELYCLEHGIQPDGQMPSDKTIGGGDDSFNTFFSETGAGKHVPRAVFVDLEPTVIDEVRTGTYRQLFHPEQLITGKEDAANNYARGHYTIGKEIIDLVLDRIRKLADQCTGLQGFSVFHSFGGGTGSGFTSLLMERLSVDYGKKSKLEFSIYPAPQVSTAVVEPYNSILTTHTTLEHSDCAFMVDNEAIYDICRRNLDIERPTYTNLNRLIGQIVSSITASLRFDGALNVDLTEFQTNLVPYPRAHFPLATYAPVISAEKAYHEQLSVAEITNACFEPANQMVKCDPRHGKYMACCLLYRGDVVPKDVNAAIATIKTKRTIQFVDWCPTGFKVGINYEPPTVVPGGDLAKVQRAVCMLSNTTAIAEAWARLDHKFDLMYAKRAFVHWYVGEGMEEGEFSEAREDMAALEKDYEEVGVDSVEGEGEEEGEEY
Target sequence in this assay (chain, as listed by the source, chain 2 of 2): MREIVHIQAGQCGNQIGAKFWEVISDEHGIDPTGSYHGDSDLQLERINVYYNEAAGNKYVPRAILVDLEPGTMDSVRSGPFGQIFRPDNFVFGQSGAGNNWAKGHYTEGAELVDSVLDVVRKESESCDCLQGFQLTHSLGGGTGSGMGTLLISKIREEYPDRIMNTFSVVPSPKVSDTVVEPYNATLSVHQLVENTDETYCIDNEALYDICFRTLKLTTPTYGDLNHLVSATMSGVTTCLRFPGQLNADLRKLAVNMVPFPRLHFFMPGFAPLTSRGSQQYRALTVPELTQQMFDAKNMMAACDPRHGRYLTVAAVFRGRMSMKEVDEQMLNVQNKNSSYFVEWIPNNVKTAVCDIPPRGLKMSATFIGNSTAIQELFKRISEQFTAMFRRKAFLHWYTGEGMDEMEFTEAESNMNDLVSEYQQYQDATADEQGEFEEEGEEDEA

[2] = target: microtubules (paclitaxel-stabilized, polymerized from tubulin); test: optical tweezers unbinding-force assay (constant-pulling); as a1 but with 1 mM ATP and TCEP (2 mM by the legend) to cleave the disulfide bonds of the stalk helices
Target sequence in this assay (P02550 whole entry, chain 1 of 2): as the sequence (chain, as listed by the source, chain 1 of 2) above
Target sequence in this assay (P02554 whole entry, chain 2 of 2, further chain): as the sequence (chain, as listed by the source, chain 2 of 2) above

[3] = target: microtubules (paclitaxel-stabilized, polymerized from tubulin); test: optical tweezers unbinding-force assay (constant-pulling); motor held by its GFP on anti-GFP Fab-coated ~1-μm beads in an optical trap, MTs immobilized on the coverslip (biotin-streptavidin) and swept past the bead; single-molecule level; no nucleotide (apo, residual ATP 37.5 nM); non-reducing conditions; 30 mM HEPES, 2 mM MgAc2, 1 mM EGTA, 20 μM paclitaxel, pH 7.2; theoretical loading rate 5.6 pN/s; primary unbinding events only
Target sequence in this assay (P02550 whole entry, chain 1 of 2): as the sequence (chain, as listed by the source, chain 1 of 2) above
Target sequence in this assay (P02554 whole entry, chain 2 of 2, further chain): as the sequence (chain, as listed by the source, chain 2 of 2) above

[4] = target: microtubules (paclitaxel-stabilized, polymerized from tubulin); test: single-molecule TIRF dwell-time measurement; zero load; labeled single heads binding to and leaving surface-immobilized Cy5-labeled MTs, 100 ms per frame; apo state (2 U/ml apyrase); 30 mM HEPES, 2 mM MgAc2, 1 mM EGTA, pH 7.2; unbinding rate from an exponential fit of the CDF of dwell times
Target sequence in this assay (chain, as listed by the source, chain 1 of 2): as the sequence (chain, as listed by the source, chain 1 of 2) above
Target sequence in this assay (chain, as listed by the source, chain 2 of 2): as the sequence (chain, as listed by the source, chain 2 of 2) above

Substance: AAA1 E/Q Dyn1_(331kDa) (E/Q mutation in the AAA1 Walker B motif), P36022 1219-4092
mean unbinding force (both directions) [1]: < 1 pN

Substance: AAA1 E/Q Dyn1_(331kDa)-α CL (AAA1 Walker B E/Q; K3077C, A3250C) (from UniProt P36022 1219-4092) (domain or fragment)
mean unbinding force (both directions) [2]: < 1 pN

Substance: GFP-Dyn1_(331kDa), tail-truncated monomeric S. cerevisiae cytoplasmic dynein motor domain (wild type) (from UniProt P36022 1219-4092) (domain or fragment)
mean unbinding force, forward load [3]: 1.6 pN

More lines, now with the values ahead:

mean unbinding force, forward load [3]: 2.2 pN
Substance: Dyn1_(331kDa)-α CL (K3077C, A3250C; stalk helices disulfide cross-linked in the α-registry) (from UniProt P36022 1219-4092) (domain or fragment)

mean unbinding force, backward load [3]: 0.7 pN | mean unbinding force, forward load [3]: 0.7 pN
Substance: Dyn1_(331kDa)-β CL (I3076C, L3247C; stalk helices disulfide cross-linked in the β-registry) (from UniProt P36022 1219-4092) (domain or fragment)

average MT-bound time [4]: 290 ms
Substance: SNAP-tagged Dyn1_(331kDa)-β CL (β-mutant heads labeled via an inserted N-terminal SNAP-tag), P36022 1219-4092
